Entries after “also recorded” stand apart in the source; their conditions may differ.
B1: miR-26a chimera: mouse c-Kit DNA aptamer-C3-passenger RNA, passenger RNA-TEG-cholesterol and miR-26a-5p guide strand annealed (SEQ ID NO:6/7, 8, 9) (nucleic acid)
chain 1: GCTCAACGCGGGACGGCTCTCCCATTGAC
chain 2: CCUAUUCUGG
chain 3: GUUACUUGCACG
guide: UUCAAGUAAUCCAGGAUAGGCU
modifications: chemistry not fully specified

Key:
TUBO-derived tumors = assay: Syngeneic TUBO breast tumor model in BALB/c mice; type: in vivo, mouse; details: for tumor size / growth, monotherapy: chimera 670 pmol/20 g 5 daily injections, 5-FU 50 mg/kg 3 times
Method: BALB/c mice bearing TUBO tumors were treated intravenously with miR-26a chimera (670 pmol/20 g) daily for 5 days. At days 2, 3, and 4, 50 mg/kg 5-FU was intravenously injected. Peripheral blood was collected 5 and 10 days after the initial 5-FU treatment. FIG. 9A is a series of graphs showing the numbers of WBC, RBC, and PLT 5 days after 5-FU treatment. FIG. 9B is a series of graphs showing the numbers of WBC, RBC, and PLT 10 days after 5-FU treatment. Data (mean+s.d.) were pooled from two experiments, involving a total of 6 mice per group. *, P<0.05, **, P<0.01. Xenograft model were generated 8-weeks old female immune-deficient NOD-scid IL2Rgamma^null (NSG™, Jackson Laboratories, Bar Harbar, Me., USA) using human breast cancer cell line. Syngeneic TUBO tumors were established in 8-weeks old female BALB/c mice (from Charles River Animal Facility, Frederick, Md., USA). These tumor-bearing mice were randomly assigned to each treatment group. Eight-week old male C57BL/6 mice and C57BL/6 ly5.2 mice (from Charles River Animal Facility, Frederick, Md., USA) were used for bone marrow transplantation assay. The mouse groups assigned for each treatment were not blinded. No statistical methods were used to pre-determined sample size for the analysis of mouse experiments. All the mice were maintained in the Research Animal Facility at Children's National Institute, Children's National Medical Center. The committee on the Use and Care of Animal at Children's National Institute approved all procedures involving experimental animals. For xenograft models, the NSG mice and BALB/c mice were subcutaneously injected with 2×10^6 viable MDA-MB-231 cells and TUBO cells in their right hind limbs, respectively. After the tumor grew to 1 cm in diameter, mice were randomly divided into the groups for each treatment. For no treatment control, 100 μl saline with 1% mouse serum was intravenously injected through tail vein. […] Tumor sizes were measured in two dimensions every 3 days. Tumor volume (V) was calculated using the following formula: V=(½) S^2×L (S. the shortest dimension; L, the longest dimension). […] For chimera treatment in normal mice, C57BL/6 mice were treated with miR-26a chimera (670 pmol/20 g) everyday for 3 days by intravenous injection. […] Peripheral bloods were collected at day 5 and day 10 after the 5-FU treatment. Complete blood counts were measured by Hemavet 950FS (Drew Scientific, Miami Lakes, Fla., USA).

TUBO cells = assay: Growth and apoptosis of TUBO cells in vitro; type: cell-based, mouse; details: for percentage of apoptotic TUBO cells (Annexin V+): single agent
Method: FIG. 4A-FIG. 4J show how miR-26a chimera inhibits mouse breast cancer growth and protects from chemo-induced myelosuppression. FIG. 4A is a graph showing the binding of c-Kit-aptamer to TUBO cells. […] Cell count (left) and Annexin V^+ cells (%) (right) of the cells cultured with miR-26a chimera or the control (ctrl) were determined by flow cytometry. Asterisks denote the significant difference between ctrl chimera versus miR-26a chimera, and between ctrl chimera+5-FU versus miR-26a chimera+5FU. Data (mean±s.d.) were pooled from two experiments. FIG. 4C is a graph showing miR-26a expression in c-Kit^+ or c-Kit cells harvested from TUBO-derived tumors in BALB/c mice treated with miR-26a chimera (670 pmol/20 g) for 3 days. Data (mean+s.d.) were pooled from two experiments, involving a total of 6 mice per group. FIG. 4D is a graph showing Ezh2 expression in c-Kit^+ or c-Kit− cells harvested from TUBO-derived tumors in BALB/c mice treated with miR-26a chimera (670 pmol/20 g) for 3 days. Data (mean+s.d.) were pooled from two experiments, involving a total of 6 mice per group. FIG. 4E is a graph showing Bak1 expression in c-Kit^+ or c-Kit-cells harvested from TUBO-derived tumors in BALB/c mice treated with miR-26a chimera (670 pmol/20 g) for 3 days. Data (mean+s.d.) were pooled from two experiments, involving a total of 6 mice per group. FIG. 4F is a graph showing miR-26a expression in bone marrow (BM) detected by qPCR at 3 days after intravenous injection with the miR-26a chimera (670 pmol/20 g). Data (mean+s.d.) were pooled from two experiments, involving a total of 6 mice per group. FIG. 4G is a graph showing Bak expression in bone marrow (BM) detected by qPCR at 3 days after intravenous injection with the miR-26a chimera (670 pmol/20 g). Data (mean+s.d.) were pooled from two experiments, involving a total of 6 mice per group. FIG. 4H is a graph showing tumor volume over time. BALB/c mice bearing TUBO cells were treated with miR-26a chimera (670 pmol/20 g) (5 times, gray arrows) and 50 mg/kg 5-FU (3 times, dark grey arrows). Data (mean+s.d.) were pooled from two experiments, involving a total of 6 mice per group. There was significant difference between 5-FU only group versus miR-26a chimera only group (two way repeated-measures ANOVA followed by Bonferroni post-test for day0 to day18 (interaction p-value<0.001). FIG. 4I is a graph showing tumor volume over time after combinational treatment with 5-FU and chimeras. Data (mean+s.d.) were pooled from two experiments, involving a total of 6 mice per group. There was significant difference between 5-FU+ctrl chimera group versus 5-FU+miR-26a chimera group (two way repeated-measures ANOVA followed by Bonferroni post-test for day0 to day21, interaction p-value<0.0001). FIG. 4J is a graph showing the numbers of WBC and PLT in the tumor bearing mice 5 days after 5-FU treatment. Data (mean+s.d.) pooled from two experiments, involving a total of 6 mice per group. *P<0.05, **P<0.01.
A mouse TUBO breast cancer model was used to evaluate the therapeutic potential of miR-26a chimera for the myeloprotection and anti-tumor growth in breast cancer chemotherapy. Binding ability of an aptamer targeting mouse c-Kit to the TUBO cells was first tested by flow cytometry. […] To determine whether the mouse c-Kit-miR-26a chimera can inhibit the growth of mouse breast cancer cells in vitro, the TUBO cells were treated with increasing doses of miR-26a- or control-chimeras, and the viable cells counted under microscope at 2 days after the treatment.

Molecule	leukocytes and thrombocytes after 5-FU (TUBO-derived tumors; TUBO-tumor bearing mice, 5-FU 50 mg/kg x3)	tumor size / growth, monotherapy (TUBO-derived tumors)	reduction in tumor cell number (TUBO cells; TUBO cells, 7 μM of 5-FU alone)	percentage of apoptotic TUBO cells (Annexin V+) (TUBO cells)	tumor growth, 5-FU combined with chimera (TUBO-derived tumors; 5-FU plus miR-26a chimera)	number of leukocytes (WBC) and thrombocytes (PLT), combination with 5-FU (TUBO-derived tumors; TUBO-tumor bearing mice, 5 days after 5-FU)	5-FU-induced leukopenia / myelosuppression in tumor-bearing mice (TUBO-derived tumors; chimera daily for 5 days, 5-FU at days 2, 3, 4)	tumor cell number / effects, chimera in combination with 5-FU (TUBO cells; TUBO cells, 5-FU 1 μg/ml (7 μM) plus chimera)	IC50 (TUBO cells; TUBO cells, viable cells counted 2 days after treatment, chimera alone, read-out: IC50, reduction in tumor cell number) [nM]	TUBO cell growth (cell count) (TUBO cells; chimera alone, increasing doses)	percentage of apoptotic TUBO cells, chimera in combination with 5-FU (TUBO cells; combination)
O=c1[nH]cc(F)c(=O)[nH]1 [5-FU, 5-fluorouracil, reference compound]	significant leukopenia and thrombocytopenia	growth retardation	less than 20%	increased	–	–	–	–	–	–	–
B1	–	significant decrease of tumor size; also recorded: more effective than 5-FU treatment	–	induced apoptosis; also recorded: increased	most effective growth retardation	nearly doubled	ameliorates 5-FU induced myelosuppression; also recorded: largely prevented leukopenia	enhanced these effects; also recorded: synergistically reduced tumor cells	~83	suppressed the growth; also recorded: dose-dependent reduction	increased
